{"source": "patent US20180038858A1", "key": {"CCR7 (human)": {"target": "CCR7 (human) (UniProt P32248)", "sequence (P32248 25-378)": "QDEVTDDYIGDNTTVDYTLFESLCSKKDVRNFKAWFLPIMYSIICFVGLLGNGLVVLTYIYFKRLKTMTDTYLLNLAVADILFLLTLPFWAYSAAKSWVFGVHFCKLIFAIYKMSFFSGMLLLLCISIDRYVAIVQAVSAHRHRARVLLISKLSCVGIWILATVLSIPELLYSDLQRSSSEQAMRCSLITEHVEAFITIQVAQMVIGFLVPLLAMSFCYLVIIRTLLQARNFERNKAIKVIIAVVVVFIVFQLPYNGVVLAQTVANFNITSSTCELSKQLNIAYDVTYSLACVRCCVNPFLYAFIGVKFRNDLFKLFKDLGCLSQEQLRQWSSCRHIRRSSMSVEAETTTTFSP", "experiment": "cell-based or functional assay"}, "hCXCR1 (human)": {"target": "hCXCR1 (human) (UniProt P25024)", "sequence (P25024 whole entry)": "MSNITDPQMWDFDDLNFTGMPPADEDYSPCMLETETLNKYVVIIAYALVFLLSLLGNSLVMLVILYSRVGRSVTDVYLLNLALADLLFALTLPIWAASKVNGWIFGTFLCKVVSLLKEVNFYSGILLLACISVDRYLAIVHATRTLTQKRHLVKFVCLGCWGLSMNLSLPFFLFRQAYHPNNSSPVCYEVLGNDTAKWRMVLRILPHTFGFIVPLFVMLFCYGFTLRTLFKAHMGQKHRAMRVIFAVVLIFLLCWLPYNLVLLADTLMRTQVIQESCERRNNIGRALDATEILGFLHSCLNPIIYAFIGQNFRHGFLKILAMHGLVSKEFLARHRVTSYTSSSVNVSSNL", "experiment": "cell-based or functional assay"}, "[1]": {"target": "CCR1, 3 and 5-expressing cells (chemokine receptor-expressing cells) (human)", "experiment": "blood of a healthy donor passed through a column of biotinylated RANTES coupled streptavidin matrix; flow cytometry before and after"}}, "data": [{"substance": "recombinant native MIP-3β (from UniProt Q99731 22-98) (ligand)", "values": [{"measurement": "EC50, agonist activity in an Aequorin assay", "setting": "CCR7 (human)", "value": 1.6, "unit": "nM"}]}, {"substance": "recombinant native IL-8 (from UniProt P10145 28-99) (ligand)", "values": [{"measurement": "EC50, agonist activity in an Aequorin assay", "setting": "hCXCR1 (human)", "value": 4.2, "unit": "nM"}]}, {"substance": "biotinIL-8 (6-78), IL-8 (6-78) derivatised at Lys(78) with PEG-Biotin (from UniProt P10145 28-99) (ligand)", "values": [{"measurement": "EC50, agonist activity in an Aequorin assay", "setting": "hCXCR1 (human)", "value": 6.1, "unit": "nM"}]}, {"substance": "biotinRANTES (CCL5), RANTES derivatised at Lys(67) with Biotin (from UniProt P13501 24-91) (ligand)", "values": [{"measurement": "reduction of chemokine receptor-expressing cells by the column", "setting": "[1]", "value": 20, "unit": "%"}]}]}
